Results: publication PMC5809404, “Luminescence resonance energy transfer between genetically encoded donor and acceptor for protein-protein interaction studies in the molecular chaperone HSP70/HSP90 complexes” (Scientific Reports, 2018)

Legend:
Conditions in all cases: both partners purified
[1] = molecular target: T1, LBT-TPR2A (TPR2A domain of yeast Sti1 with an N-terminal lanthanide binding tag) (yeast, UniProt P15705 252-379); assay: LRET (luminescence resonance energy transfer); titration: 20 µM LBT-TPR2A-Tb3+ complex with increasing EGFP-C90 (0-15 µM); normalized LRET Em510 nm/Em490 nm; Scatchard plot; three independent experiments
T1 construct: TPR2A domain of Sti1, yeast, aa 252-379; Loaded with equimolar Tb3+ in the assay; also called LBT-TPR2A (Sti1); LBT-TRP2A; source: E. coli Rosetta (DE3) pLysS, purified (Ni-NTA)
T1 sequence (looked up): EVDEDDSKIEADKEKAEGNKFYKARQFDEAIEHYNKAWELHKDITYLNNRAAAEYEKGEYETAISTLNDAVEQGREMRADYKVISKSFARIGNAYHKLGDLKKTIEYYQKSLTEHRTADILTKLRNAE

[2] = molecular target: T2, LBT-TPR2A K229A (TPR2A domain of human HOP, point mutant K229A) (human, UniProt P31948 225-337, K229A); assay: LRET (luminescence resonance energy transfer); equimolar mixture in solution of the LBT-tagged protein loaded with Tb3+ and the EGFP or TagRFP fusion protein (5 µM, or 25 µM for TagRFP-C70); 96-well black plates; excitation 280 nm, 100 µs delay, emission spectrum 450-600 nm
T2 construct: TPR2A domain of HOP (STIP1), human, aa 225-337, with K229A; Loaded with equimolar Tb3+ in the assay; also called TPR2A mutant K229A; source: E. coli Rosetta (DE3) pLysS, purified (Ni-NTA)
T2 sequence (P31948 225-337 K229A): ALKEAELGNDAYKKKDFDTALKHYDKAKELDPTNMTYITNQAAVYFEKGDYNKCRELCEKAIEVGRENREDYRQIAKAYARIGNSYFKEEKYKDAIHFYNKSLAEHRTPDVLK

[3] = molecular target: T3, LBT-TPR2A (TPR2A domain of human HOP, wild type, with an N-terminal lanthanide binding tag) (human, UniProt P31948 225-337); assay: as above
T3 construct: TPR2A domain of HOP (STIP1), human, aa 225-337; Cloned into the XhoI site of pST96/LBT-MCS; Loaded with equimolar Tb3+ in the assay; also called LBT-TPR2A WT; TPR2A WT; source: E. coli Rosetta (DE3) pLysS, purified (Ni-NTA)
T3 sequence (P31948 225-337): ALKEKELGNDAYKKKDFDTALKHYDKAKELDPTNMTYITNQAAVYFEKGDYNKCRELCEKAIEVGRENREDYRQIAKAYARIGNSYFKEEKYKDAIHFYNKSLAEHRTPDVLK

B1: EGFP-C90 (last 90 amino acids of human HSP90α fused to the C-terminus of EGFP) (domain or fragment)
chain: not shown
notes: HSP90α, human, the C-terminal 90 amino acids, ending with MEEVD; EGFP in the XhoI site and C90 in the BamHI site of pET15b; source: E. coli Rosetta (DE3) pLysS, purified (Ni-NTA); not shown: EGFP, N-terminal, kept
For B1, the Kd [1] was 4.2 µM, the binding result [2] was “binds” and the binding result [3] was “binds”.
